Assay results: the DeepSol protein solubility set

Experiment: soluble on expression in E. coli; label from the status in PepcDB or PDB records

With “MVKSIENVKLTKGLFYNSQKKGNDVILALDIDRLLAPYYEAANLPPKKRSYGGWEEREIRGHSLGHWLSAAAAMYETTGDKALLERIDRAVQELATIQDDVGYVGGVKRAHFDEMFSGEFQVGHFNIAGTWVPWYNLHKLFAGLIDVHQLTGHSLALTVVTKLADWAKKGTDQLTDDQFQRMLICEHGGMNEAMADLYTLTGHKDYLQLAIRFCHWAVLEPLANGIDELEGKHANTQIPKVIGAAKLFEITGDDTYRAIAEFFWRQVTNDRSYIIGGNSNSEHFGPANKETLGVETAETCNTYNMLKLTEHLFRWNRSSQLMDYYEKALYNHILASQDPDSGMKTYFVSLQPGHFKVYSSLEESFWCCFGTGLENPARYTRTIYDRDDRHIYVNLFMASEIHLKDLQVQIRQETNFPETDRTKLTFVKADGVSIKLHIRVPEWVAGPVTARINGKETFSESGADYLTIEREWQKGDEIEVHLPMELRIYEAKDDSHKVGIMYGPIVLAGTFGKDHFPETDIVPNHLSLHNHPLIDVPTLVATKKTPDQWIHPVEGRSLTFRTAAIGQPGNVQITLIPFYALHHERYTVYWNLMSEVEYEAFKARKEVESDQLQARTVDAVQPGEQQPEVEHQLKANHSETGYLNIMQKRWRDSRGEDGFFSYVMKVKPNQQMSLFVTYYGGDHGLFVDGKWCDRSFRILIDDEVIKEEQLLGKNPGETLDVYYPIPLALTEGKEEVVVTFASKEGTVAGGVYGVRMLCNLEHHHHHH” as the sequence, how does the “soluble on expression in E. coli” value read?
Its value is “soluble”.

With “MVKSVGCKNLSLDVKKAIVAGFEQGTPTKMLALQIQRSPSTIWKVIKKYQTEKSVALRISPGRPRVTTHRMDRNILRSAREDPHRTATDIQTIISSPNEPVPSKRTVRRRLQQAGLHGRKPVKKPFISKKNRMARVAWAKAHLRWGRQEWAKHIWSDESKFNLFGSDGNSWVRRPVGSRYSPKYQCPTVKHGGGSVMVWGCFTSTSMGPLRRIQSIMDRFQYENILETTMRPWALQNVGRGFVFQQDNDPKHTSLHVRSWFQPCRVHLLDWPSQSPDLNPIEHLWEELERRLGGIRASNADAKFNQLENAWKAIPMSVIHKLIDSMPRRCLAVIDANGYATKY” as the sequence, how does the “soluble on expression in E. coli” value read?
The value was “not soluble”.

For “MVLGKPQTDPTLEWFLSHCHIHKYPSKSTLIHQGEKAETLYYIVKGSVAVLIKDEEGKEMILSYLNQGDFIGELGLFEEGQERSAWVRAKTACEVAEISYKKFRQLIQVNPDILMRLSAQMARRLQVTSEKVGNLAFLLVTGRIAQTLLNLAKQPDAMTHPDGMQIKITRQEIGQIVGCSRETVGRILKMLEDQNLISAHGKTIVVYGTR”, which “soluble on expression in E. coli” value is on record?
The value was “soluble”.

Which “soluble on expression in E. coli” value does the source give for “MVLMIVSGRSGSGKSVALRALEDMGFYCVDNLPVVLLPDLARTLADRQISAAVSIDVRNMPESPEIFEQAMNNLPGAFSPQLLFLDADRNTLIRRYSDTRRLHPLSSKNLSLESAIDKESDLLEPLRSRADLIVDTSEMSVHELAEMLRTRLLGKRERELTMVFESFGFKHGIPIDADYVFDVRFLPNPHWDPKLRPMTGLDKPVAAFLDRHTEVHNFIYQTRSYLELWLPMLETNNRSYLTVAIGCTGGKHRSVYIAEQLADYFRSRGKNVQSRHRTLEKRKT” here?
The value was “not soluble”.

For “MVLSQRQRDELNRAIADYLRSNGYEEAYSVFKKEAELDMNEELDKKYAGLLEKKWTSVIRLQKKVMELESKLNEAKEEFTSGGPLGQKRDPKEWIPRPPEKYALSGHRSPVTRVIFHPVFSVMVSASEDATIKVWDYETGDFERTLKGHTDSVQDISFDHSGKLLASCSADMTIKLWDFQGFECIRTMHGHDHNVSSVSIMPNGDHIVSASRDKTIKMWEVQTGYCVKTFTGHREWVRMVRPNQDGTLIASCSNDQTVRVWVVATKECKAELREHRHVVECISWAPESSYSSISEATGSETKKSGKPGPFLLSGSRDKTIKMWDVSTGMCLMTLVGHDNWVRGVLFHSGGKFILSCADDKTLRVWDYKNKRCMKTLNAHEHFVTSLDFHKTAPYVVTGSVDQTVKVWECR”, which “soluble on expression in E. coli” value is on record?
The value was “soluble”.

For “MVMFMVFRILGRMTKIEKEIKEEEAKYDLIIKNEAKIEPIVAEEDMEFKQGDIKPIRIKKIKIPPMSVLLICPYGRHRVGHVVAVGEEVPMPIDVEREVDMAMFACGFEGEVKKGDLIGMLLILAAEKRELEHHHHHH”, which “soluble on expression in E. coli” value is on record?
The value was “not soluble”.

For “MVMKQTKQTNILAGAAVIKVLEAWGVDHLYGIPGGSINSIMDALSAERDRIHYIQVRHEEVGAMAAAADAKLTGKIGVCFGSAGPGGTHLMNGLYDAREDHVPVLALIGQFGTTGMNMDTFQEMNENPIYADVADYNVTAVNAATLPHVIDEAIRRAYAHQGVAVVQIPVDLPWQQIPAEDWYASANSYQTPLLPEPDVQAVTRLTQTLLAAERPLIYYGIGARKAGKELEQLSKTLKIPLMSTYPAKGIVADRYPAYLGSANRAAQKPANEALAQADVVLFVGNNYPFAEVSKAFKNTRYFLQIDIDPAKLGKRHKTDIAVLADAQKTLAAILAQVSERESTPWWQANLANVKNWRAYLASLEDKQEGPLQAYQVLRAVNKIAEPDAIYSIDVGDINLNANRHLKLTPSNRHITSNLFATMGVGIPGAIAAKLNYPERQVFNLAGDGGASMTMQDLATQVQYHLPVINVVFTNCQYGFIKDEQEDTNQNDFIGVEFNDIDFSKIADGVHMQAFRVNKIEQLPDVFEQAKAIAQHEPVLIDAVITGDRPLPAEKLRLDSAMSSAADIEAFKQRYEAQDLQPLSTYLKQFGLDDLQHQIGQGGF”, which “soluble on expression in E. coli” value is on record?
Its value is “soluble”.

Which “soluble on expression in E. coli” value does the source give for “MVMMSKQLTAQAPVDPIVLGKMGSSYGIRGWLRVFSSTEDAESIFDYQPWFIQKAGQWQQVQLESWKHHNQDMIIKLKGVDDRDAANLLTNCEIVVDSSQLPQLEEGDYYWKDLMGCQVVTTEGYDLGKVVDMMETGSNDVLVIKANLKDAFGIKERLVPFLDGQVIKKVDLTTRSIEVDWDPGFLEHHHHHH” here?
The value was “soluble”.

Which “soluble on expression in E. coli” value does the source give for “MVNSTTLAHLNTNIDHLTTVLSSYAGRDKAIRSLAFYLQLKSTTSPDNAKEILGLAKQLSAARLVSRQFNHPGMLKSCRQIMQAFQTGRIGDPLEFLTGAAVTGIYTVYGFVELLAWLSDAKILAFNSARLYKWCLYLWLSELINGIVRQMRVIYRKGIEKSQEDILTLVGLSSDFISGVNSLPHKILWAGKLSMRQSASFSLLASIIGFYKLW” here?
Its value is “not soluble”.

For “MVNVRGPVLEVDDPKSVETSHGTSQLAEVVIRPERGAASPTTVTLWGKWTETVEYLAVGMELLATDLDERTFDGDTQYSTTGESAVVVEPDFLVDVTDIRGWVQCPRMYYLNKLTGLPLKYPVLKGTVVHEVFGDLLRGRDLESSIESRVAEAALDIGLLGETADAVADDVRQNAAAIQGWLQQGRFGEDSWRSEQTLISERFGIKGRADAVRRGMPVELKTGKNLKRSPRFQDKVQAACYGLLLADDIADPPDTGTLLYTKNSALDRSEESGDLSPAKEFSIGPGFLKYVLRVRNEIAAAEYDMSVPTGFEADANCDYCFEQDTCMVVSGRLDQESKAGQLGEPLPEPERAYFERLYRAIEEERREVHAEYRKLWEQSAAERADDDRALVDLDPLGREPLDGGRWALSARRTSDAVSKIREGDRVLASDGHPTQGTAELATVRHLDDEIVVVADEPFELRRIDVYPSELGVDRQLTALHDAVLRGDPDRKDVLFGRREPSFVGDHRPIIDNNESQNEAVNRALAAEDFALIHGPPGTGKTYTLAQTVQALVARGDRVLLSAFTNRAVDNAIEALEAQGFTDVLRWGSESGVRDDMQSYRFDRTGDPRERAAALRDAQVVAATTAACGSRALKQQQFDVAVIDEAGQLTEPGTFLATNRADRFVLVGDHEQLPPVVRAENDLQTSLFEQLIDDYPDAAVMLDRQYRMSQRIQYFASREFYDGQLRPANAEVASQRLADLDGVDVSTLPSALRDAVSFVDPGLEHHHHHH”, which “soluble on expression in E. coli” value is on record?
Its value is “not soluble”.

For “MVNYKEKLDEAIHLTQQKGFEQTRAEWLMLDVFQWTRTDFVVHMHDDMPKAMIMKFDLALQRMLLGEPIQYIVGFASFYGRTFDVNSNCLIPRPETEEVMLHFLQQLEDDATIVDIGTGSGVLAITLKCEKPDLNVIATDISLEAMNMARNNAEKHQSQIQFLTGDALKPLINEGIKLNGLISNPPYIDEKDMVTMSPTVTRFEPHQALFADNHGYAIYESIIEDLPHVMEKGSPVVFEIGYNQGEALKSIILNKFPDKKIDIIKDINGHDRIVSFKW”, which “soluble on expression in E. coli” value is on record?
The value was “not soluble”.

Which “soluble on expression in E. coli” value does the source give for “MVPHDKDKDNPSELIRGKDVAAFGLWSLPSFDEPRDEPAVAAPQVPAVAEPAPAPPAVEEVELETVKPPTLEEIEAIRQDAYNEGFATGERDGFHAGQLKARQEAEEALKERLQSLERLMTQLLEPIAEQDALIEQGMVNLVNHVARQVIQRELHMDSSHVRQVLREALKLLPMGAANIRIHVNPQDFERVKALRERHEESWRILEDDSLLPGGCRIETEHSRIDATIETRLAQAVKQLFEQQREQATHPLASDIRIDLDAPGDVDAP” here?
Its value is “not soluble”.
